Experimental data as given in PMC12724136, “Design of antibody structure-guided epitope vaccines in silico to induce potent immune responses against emerging viruses” (Journal of Virology, 2025).

B1: scFv1: tilapia-derived single-chain antibody fragment with high affinity for TiLV, from phage library (protein)
scFv: MSHRLTCAYSGFSSDIHAVWVRQAAGKGLEWIAYISDSSAYIYYSQSVRGRFTISRDNSRKQVYLQMNSLTTEDSAVYYCTREGSGFAFDYWGKGTGGGGSGGGGSGGGGSVTISATGSSNIGADLSWYLQKTGETPKLLIYKASTRSSGTPPRFSGSTSGSQYTLTISGVQAEDAGDYYCLGDHGGGALTFGGGTK
modifications: left off: 6×His, end not stated, kept | thioredoxin (from the vector pET32a), end not stated, state not stated

What was measured:
tilapia IgM = assay: Serum antibody levels of tilapia after immunization with epitope peptides (ELISA); type: in vivo, Nile tilapia (Oreochromis niloticus); conditions: 20 µg peptide i.m. with Freund's adjuvant, 7-28 days
Excerpt: Epitope vaccines usually need to be modified with Freund’s adjuvant (Beyotime) before immunization. Briefly, for a single immunization, the epitope peptide is mixed with an equal dose of complete Freund’s adjuvant and then administered to tilapia. For booster immunization, an equal dose of incomplete Freund’s adjuvant is fused with the epitope peptide before vaccination. For the S1, S3, and S10 epitope vaccine immunization programs, healthy Oreochromis niloticus were divided into six groups (70 fish per group) and vaccinated with 20 µg of peptide vaccine by intramuscular injection. During the 1–4 week immunization period, we collected four fish serum samples weekly for immunological analysis.
In the immunization experiments based on the P30-designed vaccine, healthy Nile tilapia were divided into four groups (70 fish per group) and injected intramuscularly with 20 µg of peptide vaccine to complete the primary immunization. After 14 days, the same dose of vaccine was administered again to complete the booster immunization. Serum and tissue samples were collected from 4 fishes in each group weekly after the primary immunization, for a total of 6 weeks. Furthermore, a PBS control was incorporated into both immunization experiments, and the immunization process was conducted in accordance with the aforementioned methodology.
Serum antibody levels after immunization were determined by indirect ELISA. Specifically, serum samples were diluted appropriately, coated to enzyme-labeled plates, and incubated overnight at 4°C. After being washed three times with PBST buffer, each well was incubated with mouse anti-tilapia IgM mAb (1:5,000) at 37°C for 1 h. After washing, each well was incubated with HRP-conjugated goat anti-mouse IgG (1:5,500) for an additional hour. Color development was carried out as described above.

TiLV-positive antibody = assay: Depletion of TiLV-positive antibodies by epitope peptides (ELISA); type: binding, tilapia; conditions: TiLV-positive antibody diluted 800-fold, 10 depletion cycles
Method: The epitope peptide to be detected was coated on the ELISA plate at 37°C for 2 h. After washing with PBST, it was blocked with 2% skim milk powder for 2 h to reduce non-specific binding. The TiLV-positive antibody was diluted 800-fold and added to the wells at 100 µL per well. After incubation at room temperature for 20 min, the liquid was aspirated. The ELISA plate was briefly washed, and then, the serum was added again. This process was repeated 10 times, and then, the serum was collected. An ELISA was performed on the collected serum to detect the level of tilapia IgM. Blank and non-depleted negative controls were set up in the experiment. The depletion rate was calculated as follows: Depletion rate = (OD450 of non-depleted sample − OD450 of detected sample) / OD450 of non-depleted sample × 100%.

scFv1 = assay: Western blot, binding of S3 epitope peptide and mutants to GST-scFv1; parameters: species or system Nile tilapia (Oreochromis niloticus); conditions: PVDF membrane with GST-scFv1 incubated with S3 proteins 37°C 2 h; 6×His tag antibody
Method: The PET-N-GST-scFv1 plasmid was constructed using seamless cloning technology (Vazyme), and the protein was obtained through a prokaryotic expression system. The scFv1 protein was purified using GST resin (Beyotime) and stored after lyophilization. Similarly, S3-WT, S3-MuT-^Y386^A, S3-MuT-^R393^A, S3-MuT-^L398^A, and S3-MuT were expressed in prokaryotes using the pET32a plasmid. In the Western blot experiment, after blocking, the PVDF membrane containing GST-scFv1 blots was incubated with each of the five S3 proteins at 37°C for 2 h. Subsequently, the anti-6×His tag mouse mAb was used as the primary antibody, and HRP-conjugated goat anti-mouse IgG was used as the secondary antibody. The ECL color development steps were performed as described above.

TiLV [1] = assay: Cellular fluorescence analysis of binding between scFv1 and TiLV in CIK cells; type: cell-based; conditions: GST-scFv1 incubated 24 h with TiLV-infected CIK cells
Method: After being cultured for 48 h, CIK cells grew into a monolayer and were then continuously incubated with TiLV virus at 28°C for 72 h. Subsequently, the culture medium was replaced, and the cells were incubated with GST-scFv1 protein for 24 h to ensure binding to TiLV particles. The cells were fixed with 4% paraformaldehyde at room temperature for 10 min and then incubated with immunostaining permeabilization buffer with Triton X-100 for 10 min. Subsequently, the GST mouse mAb (1:500, Beyotime) was used as the primary antibody and incubated with CIK cells at 4°C overnight, and FITC-labeled goat anti-mouse IgG (1:500, Beyotime) was used as the secondary antibody. After DAPI staining, the cells were observed under a fluorescence microscope. Cells that were not incubated with GST-scFv1 protein served as the control.

TiLV [2] = assay: In vivo protection study of scFv1 against TiLV infection in tilapia; parameters: species or system Nile tilapia (Oreochromis niloticus); conditions: scFv1 10 μg/g i.p. 12 h after TiLV
Method: Healthy Nile tilapia (Oreochromis niloticus) with a body weight of approximately 3.2±0.6 g were selected. After being temporarily cultured in a circulating water aquaculture system, they were randomly divided into a neutralization experimental group, a virus control group, and a BSA control group, with 30 fish in each group. In the experimental group, 50 μL of TiLV virus suspension (8×10^3 copies/μL) was injected intraperitoneally. Twelve hours later, a solution of scFv1 diluted in PBS at a dose of 10 μg/g was injected intraperitoneally. In the BSA control group, after injecting the same dose of TiLV, BSA solution of the same concentration was used instead of the scFv1. In the virus control group, only virus was injected. Meanwhile, a blank control was set up. After the injection, the mortality of tilapia was observed and recorded continuously for 10 days, and the cumulative mortality rate was calculated.

TiLV [3] = assay: Indirect ELISA, affinity of scFv for TiLV; type: binding, tilapia lake virus (TiLV)
Method: The scFv affinity assay was performed by indirect ELISA. The virus (4 × 10^3 copies/μL) was incubated overnight at 4°C after being coated in the wells. After blocking with 5% skim milk, 100 µL of scFv1 and scFv3 proteins at the same concentrations (0.01–100 μg/mL) were added and incubated. Meanwhile, BSA proteins with the same concentration gradient were used as controls. The primary and secondary antibodies were 6×His tag mouse mAb and HRP-conjugated goat anti-mouse IgG, respectively, following the previous protocol. The color development and readings were performed as described above. The scFvs obtained from both the prokaryotic and eukaryotic expression systems were verified for their affinity to TiLV. Meanwhile, the BSA protein was used as a negative control.

Row | Molecule | immunogenicity (serum antibody titer) after single immunization (tilapia IgM) | TiLV-positive antibody depletion rate (TiLV-positive antibody) | binding to GST-scFv1 by Western blot (scFv1) | binding to TiLV on infected CIK cells (green fluorescence) (TiLV [1]) | increase of the survival rate of TiLV-infected tilapia (TiLV [2]) | EC50 of the scFv expressed in CHO cells that binds to TiLV (TiLV [3]; indirect ELISA, scFv from CHO expression system) | EC50 for the binding of scFv to TiLV (TiLV [3]; indirect ELISA, scFv from prokaryotic expression, coated virus 4 × 10^3 copies/μL, scFv 0.01–100 μg/mL) | EC50 of scFv1 fold lower than that of scFv3 (TiLV [3]; prokaryotic expression, binding to TiLV)
1 | GYQLASEIRGTIPLSS [S3WT] | highest immunogenicity | ~70% | able to bind | – | – | – | – | –
2 | B1 | – | – | – | had bound to TiLV | ~30% | 2.098 µg/mL | 33.06 µg/mL | 3.22 fold
